How the values were obtained:
[1] = target: HveC(346t) (human) (UniProt Q15223); assay: SPR (Biacore X)
[2] = target: HveC(143t) (human) (UniProt Q15223); assay: gel filtration, from the size of the complex
[3] = target: HveC(245t) (human) (UniProt Q15223); assay: gel filtration, from the size of the complex
[4] = target: HveC(346t) (human) (UniProt Q15223); assay: gel filtration, from the size of the complex
[5] = target: HveC(143t) (human) (UniProt Q15223); assay: silver-stained PAGE of the complex fraction against standards
[6] = target: HveC(346t) (human) (UniProt Q15223); assay: silver-stained gel analysis of the complex formed in excess gD(285t)
[7] = target: HveC(143t) (human) (UniProt Q15223); assay: SPR (Biacore X), HveC(143t) amine-coupled to the chip, gD in flow, KD = koff/kon
[8] = target: HveC(346t) (human) (UniProt Q15223); assay: SPR (Biacore X), HveC(346t) amine-coupled to the chip, gD in flow, KD = koff/kon
[9] = target: HveC(143t) (human) (UniProt Q15223); assay: SPR (Biacore X), HveC(143t) amine-coupled to the chip, gD in flow, 1:1 Langmuir global fit
[10] = target: HveC(346t) (human) (UniProt Q15223); assay: SPR (Biacore X), HveC(346t) amine-coupled to the chip, gD in flow, 1:1 Langmuir global fit
[11] = target: HveA(200t) (human) (UniProt Q92956); assay: ELISA, HveAt on the plate
[12] = target: HveC(346t) (human) (UniProt Q15223); assay: ELISA, HveCt on the plate
[13] = target: HveA(200t) (human) (UniProt Q92956); assay: ELISA, apparent affinity from half-maximal binding, HveAt on the plate
[14] = target: HveC(346t) (human) (UniProt Q15223); assay: ELISA, apparent affinity from half-maximal binding, HveCt on the plate
[15] = target: HveC(346t) (human) (UniProt Q15223); assay: gel filtration
[16] = target: HveC(346t) (human) (UniProt Q15223); assay: gel filtration at various molar ratios
[17] = target: HveC(346t) (human) (UniProt Q15223); assay: silver-stained SDS-PAGE of the complex fraction

Sequence of UniProt Q92956 (Q92956 39-202): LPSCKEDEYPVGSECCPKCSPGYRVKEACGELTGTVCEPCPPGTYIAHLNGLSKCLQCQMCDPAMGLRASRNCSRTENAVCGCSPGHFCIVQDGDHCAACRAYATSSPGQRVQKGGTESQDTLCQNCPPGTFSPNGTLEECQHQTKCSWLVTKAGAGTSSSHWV

With gD(285t) (ligand) the fold increase in affinity over gD(306t) [1] was over 80 fold, the stoichiometry (gD:HveC) [2] was 1 gD per HveC and the stoichiometry (gD:HveC) [3] was 1 gD per HveC. For the same substance, the stoichiometry (gD:HveC) [4] was 2 gD per HveC, the ratio in the complex (HveC(143t) per gD(285t)) [5] was 1 and the ratio in the complex [6] was 2 gD per HveC. The Kd [7] was 35 nM, the Kd [8] was 38 nM and the koff [9] was 0.013 s⁻¹. It also gave a kon [9] of 370000 M⁻¹ s⁻¹, a koff [10] of 0.0073 s⁻¹ and a kon [10] of 190000 M⁻¹ s⁻¹.
With gD(306t)rid1 (ligand) the fold increase in affinity compared to gD(306t) [1] was 20 fold, the Kd [7] was 200 nM and the Kd [8] was 170 nM. The koff [9] was 0.008 s⁻¹, the kon [9] was 39000 M⁻¹ s⁻¹ and the koff [10] was 0.0047 s⁻¹. The kon [10] was 27000 M⁻¹ s⁻¹.
gD-1(306t) KOS (ligand) showed a gD concentration at saturation [11] of 2 to 3 µM, a gD concentration at saturation (µM (printed RM)) [12] of 10 to 20 and a Kd [13] of 300 nM. It also gave a Kd [14] of 1000 nM, a Kd [7] of 1200 nM and a Kd [8] of 3200 nM. The koff [9] was 0.011 s⁻¹, the kon [9] was 9000 M⁻¹ s⁻¹ and the koff [10] was 0.007 s⁻¹. For the same substance, the kon [10] was 2200 M⁻¹ s⁻¹.
With gD-1(A290-299t) (ligand) the stoichiometry (gD:HveC) [15] was 2 gD per HveC, the fold increase in binding compared to wild type gD(306t) [11] was 100 fold and the fold increase in binding compared to wild type gD(306t) [12] was 100 fold. It also gave a stoichiometry (gD:HveCt) [16] of 2 gD per HveCt and a gD:HveCt ratio in the complex [17] of 1.6 gD per HveCt.

From US6641818
